Assay results: patent US10434147B2, “Treatment type 2 diabetes mellitus patients” (Sanofi-Aventis Deutschland GmbH, priority 2015, dated 2019)

Legend:
Type in all cases: in vivo, human
[1] = tested on: Patients with Type 2 Diabetes Insufficiently Controlled with Insulin Glargine with or without Metformin; assay: Treatment-emergent adverse events, 26-week study; conditions: in vivo
Source text: (§1) FIG. 6—Graphical study design. ^1 Insulin glargine should be injected subcutaneously once daily at dinner or breakfast time (according to patient's/investigators' preference). […] Meal used for insulin glulisine dosing should remain the same throughout the 26-week treatment period. ^4 Injection of insulin glulisine prior to breakfast, lunch and dinner.
(§2) Co-primary endpoints at 26 weeks were (1) non-inferiority (95% CI upper bound <0.4%) in HbA1c reduction with LIXI vs GLU-1 and (2) for LIXI vs GLU-3, either non-inferiority in HbA1c reduction (2a) OR superiority (one-sided α≤0.025) in body weight change (2b). FPG, PPG, IG dose, composite outcomes, AEs, and hypoglycemia were assessed.

[2] = tested on: Patients with Type 2 Diabetes Insufficiently Controlled with Insulin Glargine with or without Metformin; assay: Body weight, 26-week study
Source text: as §1, §2

[3] = tested on: Patients with Type 2 Diabetes Insufficiently Controlled with Insulin Glargine with or without Metformin; assay: 2-h PPG post test meal, 26-week study; conditions: subset of mITT treated before breakfast
Experimental: as §2

[4] = Baseline (before IMP), mITT population
[5] = Week 26 (LOCF), mITT population

Insulin Glulisine QD: insulin glulisine once daily, added to insulin glargine ± metformin (comparator arm)
Patients with treatment emergent SAE: Neuritis cranial [1]: 1 (0.3%) n (%) | Patients with treatment emergent SAE: Pancreatic carcinoma metastatic [1]: 0 n (%) | Patients with treatment emergent SAE: Penile infection [1]: 0 n (%) | Patients with treatment emergent SAE: Renal and urinary disorders (SOC) [1]: 0 n (%) | Patients with treatment emergent SAE: Renal failure [1]: 0 n (%) | Patients with treatment emergent SAE: Renal failure acute [1]: 0 n (%) | Patients with treatment emergent SAE: Septic arthritis staphylococcal [1]: 0 n (%) | Patients with treatment emergent SAE: Skin and subcutaneous tissue disorders (SOC) [1]: 0 n (%) | Patients with treatment emergent SAE: Skin ulcer haemorrhage [1]: 0 n (%) | Patients with treatment emergent SAE: Uterine cancer [1]: 0 n (%) | Patients with treatment emergent SAE: Vascular disorders (SOC) [1]: 0 n (%) | TEAE leading to permanent treatment discontinuation: Abdominal pain [1]: 0 n (%) | TEAE leading to permanent treatment discontinuation: Any class [1]: 2 (0.7%) n (%) | TEAE leading to permanent treatment discontinuation: Ascites [1]: 0 n (%) | TEAE leading to permanent treatment discontinuation: Blood and lymphatic system disorders (SOC) [1]: 0 n (%) | TEAE leading to permanent treatment discontinuation: Blood glucose decreased [1]: 1 (0.3%) n (%) | TEAE leading to permanent treatment discontinuation: Cardiac disorders (SOC) [1]: 0 n (%) | TEAE leading to permanent treatment discontinuation: Cardiac failure chronic [1]: 0 n (%) | TEAE leading to permanent treatment discontinuation: Cough [1]: 0 n (%) | TEAE leading to permanent treatment discontinuation: Decreased appetite [1]: 0 n (%) | TEAE leading to permanent treatment discontinuation: Dehydration [1]: 0 n (%) | TEAE leading to permanent treatment discontinuation: Diabetic bullosis [1]: 0 n (%) | TEAE leading to permanent treatment discontinuation: Diarrhoea [1]: 0 n (%) | TEAE leading to permanent treatment discontinuation: Dyspepsia [1]: 0 n (%) | TEAE leading to permanent treatment discontinuation: Epigastric discomfort [1]: 0 n (%) | TEAE leading to permanent treatment discontinuation: Gastric ulcer haemorrhage [1]: 0 n (%) | TEAE leading to permanent treatment discontinuation: Gastrointestinal disorders (SOC) [1]: 0 n (%) | TEAE leading to permanent treatment discontinuation: Headache [1]: 0 n (%) | TEAE leading to permanent treatment discontinuation: Hepatic mass [1]: 0 n (%) | TEAE leading to permanent treatment discontinuation: Hepatobiliary disorders (SOC) [1]: 0 n (%) | TEAE leading to permanent treatment discontinuation: Hot flush [1]: 0 n (%) | TEAE leading to permanent treatment discontinuation: Hypoglycaemia [1]: 0 n (%) | TEAE leading to permanent treatment discontinuation: Immune system disorders (SOC) [1]: 0 n (%) | TEAE leading to permanent treatment discontinuation: Invasive ductal breast carcinoma [1]: 0 n (%) | TEAE leading to permanent treatment discontinuation: Investigations (SOC) [1]: 1 (0.3%) n (%) | TEAE leading to permanent treatment discontinuation: Lymphadenopathy [1]: 0 n (%) | TEAE leading to permanent treatment discontinuation: Metabolism and nutrition disorders (SOC) [1]: 0 n (%) | TEAE leading to permanent treatment discontinuation: Metastases to liver [1]: 0 n (%) | TEAE leading to permanent treatment discontinuation: Metastases to peritoneum [1]: 0 n (%) | TEAE leading to permanent treatment discontinuation: Nasal congestion [1]: 0 n (%) | TEAE leading to permanent treatment discontinuation: Nausea [1]: 0 n (%) | TEAE leading to permanent treatment discontinuation: Neoplasms benign, malignant and unspecified (incl cysts and polyps) (SOC) [1]: 0 n (%) | TEAE leading to permanent treatment discontinuation: Nervous system disorders (SOC) [1]: 1 (0.3%) n (%) | TEAE leading to permanent treatment discontinuation: Pancreatic carcinoma metastatic [1]: 0 n (%) | TEAE leading to permanent treatment discontinuation: Renal and urinary disorders (SOC) [1]: 0 n (%) | TEAE leading to permanent treatment discontinuation: Renal failure [1]: 0 n (%) | TEAE leading to permanent treatment discontinuation: Respiratory, thoracic and mediastinal disorders (SOC) [1]: 0 n (%) | TEAE leading to permanent treatment discontinuation: Seasonal allergy [1]: 0 n (%) | TEAE leading to permanent treatment discontinuation: Skin and subcutaneous tissue disorders (SOC) [1]: 0 n (%) | TEAE leading to permanent treatment discontinuation: Skin ulcer haemorrhage [1]: 0 n (%) | TEAE leading to permanent treatment discontinuation: Thrombosis [1]: 0 n (%) | TEAE leading to permanent treatment discontinuation: Tremor [1]: 1 (0.3%) n (%) | TEAE leading to permanent treatment discontinuation: Vascular disorders (SOC) [1]: 0 n (%) | TEAE leading to permanent treatment discontinuation: Vomiting [1]: 0 n (%) | Total number of patients with any event adjudicated as pancreatitis by PSAC [1]: 0 n (%) | Body weight, Change from baseline to Week 26 (LOCF), LS Mean (SE) ([2]; ANCOVA, mITT population): 1.03 (0.276) kg | Body weight change to Week 26, LS Mean difference (SE) of Lixisenatide vs. the labelled insulin glulisine arm ([2]; ANCOVA, mITT population, p <.0001): −1.66 (0.305) kg | Body Weight, BL mean ± SD ([2]; BL, mITT, Example 2 table): 88.4 ± 15.9 kg | Body weight, Baseline, Mean (SD) [2, 4]: 88.37 (15.88) kg | Body weight, Baseline, Median [2, 4]: 88.00 kg | Body weight, Week 26 (LOCF), Mean (SD) [2, 5]: 89.31 (16.27) kg | Body weight, Week 26 (LOCF), Median [2, 5]: 88.40 kg | Body Weight, Week 26 (LOCF) mean ± SD ([2]; Week 26 (LOCF), mITT, Example 2 table): 89.3 ± 16.3 kg | Body Weight, LS mean ± SE change from BL ([2]; Week 26, mITT, Example 2 table): 1.0 ± 0.3 kg | Body Weight, LS mean treatment difference (lixisenatide vs the labelled arm) ([2]; Week 26, mITT, p < 0.0001, Example 2 table): -1.7 kg | Body weight, Change from baseline to Week 26 (LOCF), Mean (SD) ([2]; mITT population): 0.94 (2.50) kg | Body weight, Change from baseline to Week 26 (LOCF), Median ([2]; mITT population): 0.90 kg | 2-h PPG post test meal, BL (end run-in) mean ± SD ([3]; BL): 249 ± 63 mg/dL | 2-h PPG post test meal, Week 26 (LOCF) mean ± SD ([3]; Week 26 (LOCF)): 220 ± 60 mg/dL | 2-h PPG post test meal, LS mean treatment difference (lixisenatide vs the labelled arm) ([3]; Week 26): -37 mg/dL | 2-h PPG post test meal, LS mean ± SE change from BL ([3]; Week 26): -28 ± 11 mg/dL
